Experiments:
Assay in all cases: IEDB peptide-MHC binding, purified MHC/competitive/radioactivity; filed as Kd, often an IC50 or EC50 that approximates it; ≥ and ≤ were set here for values at or beyond the usual limits of such assays
HLA-A*11:01 = molecular target: HLA-A*11:01
HLA-A*33:01 = molecular target: HLA-A*33:01
HLA-A*68:01 = molecular target: HLA-A*68:01
HLA-A*03:01 = molecular target: HLA-A*03:01
HLA-A*31:01 = molecular target: HLA-A*31:01
[1] = source organism: Dengue virus 3 Martinique/1243/1999
[2] = source organism: Vaccinia virus WR
[3] = source organism: Dengue virus 4 Philippines/H241/1956
[4] = source organism: SARS coronavirus Tor2
[5] = source organism: Mammarenavirus juninense
[6] = source organism: Mammarenavirus machupoense
[7] = source organism: Dengue virus 1 Brazil/97-11/1997
[8] = source organism: Mammarenavirus brazilense
[9] = source organism: Dengue virus 2 Jamaica/1409/1983
[10] = source organism: Mammarenavirus whitewaterense
[11] = source organism: Lymphocytic choriomeningitis virus (strain Armstrong)

Sequence	Kd (HLA-A*33:01; [2]) [nM]	Kd (HLA-A*11:01; [2]) [nM]	Kd (HLA-A*68:01; [2]) [nM]	Kd (HLA-A*03:01; [2]) [nM]	Kd (HLA-A*31:01; [2]) [nM]	other results
AAIDGEYRLK						Kd (HLA-A*11:01; [1]): 349 nM
AIDRQVSVK	≥ 77700	42.1	11300	144	4370	
AIKILTGFR						Kd (HLA-A*31:01; [3]): 54.7 nM
ALALLLLDR						Kd (HLA-A*33:01; [4]): ≥ 51700 nM; Kd (HLA-A*11:01; [4]): 7530 nM; Kd (HLA-A*68:01; [4]): ≥ 52900 nM; Kd (HLA-A*03:01; [4]): 3150 nM; Kd (HLA-A*31:01; [4]): 8000 nM
ALYEQVVMDY						Kd (HLA-A*33:01; [4]): ≥ 27100 nM; Kd (HLA-A*11:01; [4]): 3430 nM; Kd (HLA-A*68:01; [4]): ≥ 32500 nM; Kd (HLA-A*03:01; [4]): 348 nM; Kd (HLA-A*31:01; [4]): ≥ 44600 nM
ALYYVHSLLY	≥ 24200	9.2	2240	0.39	11200	
AMYYAVLSEY	5190	89.8	982	≤ 1	2850	
ASILSLETVK	≥ 70000	25.4	1770	4700	12800	
ATKRYPGVMY	≥ 70000	164	≥ 70200	32.8	18100	
AVAKCNLNH						Kd (HLA-A*11:01; [5]): 230 nM; Kd (HLA-A*68:01; [5]): ≥ 46500 nM; Kd (HLA-A*03:01; [5]): 84.6 nM; Kd (HLA-A*31:01; [5]): 688 nM
DAVRAFLLR	23.4	13700	0.831	≥ 34400	484	
DTNLITCNDH						Kd (HLA-A*33:01; [6]): ≥ 30800 nM; Kd (HLA-A*11:01; [6]): ≥ 69700 nM; Kd (HLA-A*68:01; [6]): ≥ 70100 nM; Kd (HLA-A*03:01; [6]): ≥ 70000 nM; Kd (HLA-A*31:01; [6]): ≥ 70000 nM
DTPSPPEVER						Kd (HLA-A*68:01; [7]): 610 nM
EFIFSALDEK	1630	1.42	1.3	15.5	≥ 70000	
ELAELLEMK	1210	1270	13.3	3800	15900	
EMILMKMKK						Kd (HLA-A*68:01; [3]): 74.2 nM
EVMRSRWSR						Kd (HLA-A*33:01; [7]): 4.12 nM; Kd (HLA-A*68:01; [7]): 13.1 nM
FIFSLKDTLK						Kd (HLA-A*68:01; [1]): 54.1 nM
FIMAYVNQAH						Kd (HLA-A*33:01; [8]): 14500 nM; Kd (HLA-A*11:01; [8]): ≥ 42700 nM; Kd (HLA-A*68:01; [8]): 3450 nM; Kd (HLA-A*03:01; [8]): ≥ 20300 nM; Kd (HLA-A*31:01; [8]): ≥ 30200 nM
FIVPEFAKQY	≥ 70000	≥ 69800	11300	≥ 70100	≥ 70000	
FLISGKGIGK						Kd (HLA-A*03:01; [1]): 53.2 nM
FMLIFNVKSK	19400	3430	37.7	211	6050	
GFLSRNKKPR						Kd (HLA-A*33:01; [7]): 1770 nM
GILARWSSFK						Kd (HLA-A*11:01; [7]): 29.4 nM; Kd (HLA-A*03:01; [7]): 2.06 nM

Sequence	Kd (HLA-A*33:01; [2]) [nM]	Kd (HLA-A*11:01; [2]) [nM]	Kd (HLA-A*68:01; [2]) [nM]	Kd (HLA-A*03:01; [2]) [nM]	Kd (HLA-A*31:01; [2]) [nM]	other results
GLLSGQGPMK						Kd (HLA-A*03:01; [7]): 2.62 nM
GTMKIKDEER						Kd (HLA-A*68:01; [7]): 165 nM
GTVTMECSPR						Kd (HLA-A*68:01; [9]): 89 nM
GVAMPNLYK						Kd (HLA-A*33:01; [4]): 14800 nM; Kd (HLA-A*68:01; [4]): 6.9 nM; Kd (HLA-A*31:01; [4]): 1650 nM
GVFKNPCTSH						Kd (HLA-A*33:01; [10]): ≥ 70000 nM; Kd (HLA-A*11:01; [10]): 2690 nM; Kd (HLA-A*68:01; [10]): ≥ 26000 nM; Kd (HLA-A*03:01; [10]): 6290 nM; Kd (HLA-A*31:01; [10]): ≥ 30100 nM
IILFILFFAY	2570	11100	325	720	1330	
IISRTRLYDY	≥ 70000	1270	4360	225	13200	
ILSKIPYLR	97.4	30.7	13.3	605	2.54	
IMAYVNQAH						Kd (HLA-A*33:01; [8]): ≥ 36000 nM; Kd (HLA-A*11:01; [8]): ≥ 26900 nM; Kd (HLA-A*68:01; [8]): ≥ 23500 nM; Kd (HLA-A*03:01; [8]): 2210 nM; Kd (HLA-A*31:01; [8]): 3410 nM
IMKNTTNTRR						Kd (HLA-A*31:01; [9]): 13.9 nM
IVASVNMVSR						Kd (HLA-A*68:01; [1]): 6.75 nM
IYKGVYQFK						Kd (HLA-A*33:01; [11]): 13.5 nM; Kd (HLA-A*11:01; [11]): 718 nM; Kd (HLA-A*68:01; [11]): 8810 nM; Kd (HLA-A*03:01; [11]): 198 nM; Kd (HLA-A*31:01; [11]): 3.21 nM
KFAEESYTYY	≥ 42100	10200	1130	4860	≥ 21700	
KLGDKGSPYY	≥ 39400	3570	5080	2.48	≥ 23100	
KLITEWCCR						Kd (HLA-A*31:01; [9]): 10.3 nM
KLYEEPLSK						Kd (HLA-A*03:01; source organism: Homo sapiens): 2.5 nM
KSNILMWNK	13700	2.25	2870	27.5	1.01	
KTDFGFYQVK						Kd (HLA-A*11:01; [3]): 56 nM; Kd (HLA-A*03:01; [3]): 27.4 nM
KTQFNYFKK						Kd (HLA-A*33:01; [4]): ≥ 77300 nM; Kd (HLA-A*11:01; [4]): 2.26 nM; Kd (HLA-A*68:01; [4]): 2830 nM; Kd (HLA-A*03:01; [4]): 115 nM; Kd (HLA-A*31:01; [4]): 2.32 nM
KVDTRTPRAK						Kd (HLA-A*03:01; [7]): 7.24 nM
KVVKKLSVIR	3620	916	482	5120	56.3	
LIDLAFLIK	≥ 77700	462	≥ 77700	3480	2330	
LIIGPMFSGK	2560	1.81	9.92	6.17	1270	

Source: the Immune Epitope Database (IEDB)
